Patent US20140087995A1 (published 2014)
Numbered stars: 1 amine (or outer) side, 2 acyl side, 3 side chain; on linkers, the order of the positions; unused ones are H or OH. Bridge positions count the residues as written; N and C are the ends. Side chains are listed from the residue outwards. Ends that are not written are not given here. * marks the point of attachment. C20 diacid = O=C(O)CCCCCCCCCCCCCCCCCCC(=O)*; γGlu = O=C(O)[C@H](CCC(=O)[*:2])N[*:1]

Target: T1, human amylin receptor (amylin 3(a) receptor: human calcitonin receptor with RAMP-3) (human, UniProt P30988 25-474; O60896 24-148)
T1 construct: whole, on cells; also called hAmylin-R; hAmylinR
T1 sequence (looked up) 1: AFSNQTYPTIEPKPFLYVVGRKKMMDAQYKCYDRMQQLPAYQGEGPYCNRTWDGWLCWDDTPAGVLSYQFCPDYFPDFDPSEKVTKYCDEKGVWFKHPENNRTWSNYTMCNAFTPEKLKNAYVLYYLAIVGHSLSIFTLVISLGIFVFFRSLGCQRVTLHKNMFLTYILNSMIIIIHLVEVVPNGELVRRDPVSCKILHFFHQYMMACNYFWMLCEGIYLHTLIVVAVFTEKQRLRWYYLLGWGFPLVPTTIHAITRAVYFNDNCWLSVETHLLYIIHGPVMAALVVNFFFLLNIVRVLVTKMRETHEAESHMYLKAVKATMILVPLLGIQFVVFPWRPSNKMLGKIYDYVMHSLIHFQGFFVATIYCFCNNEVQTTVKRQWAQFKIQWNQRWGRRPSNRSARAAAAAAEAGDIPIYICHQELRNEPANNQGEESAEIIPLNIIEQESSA
T1 sequence (looked up) 2: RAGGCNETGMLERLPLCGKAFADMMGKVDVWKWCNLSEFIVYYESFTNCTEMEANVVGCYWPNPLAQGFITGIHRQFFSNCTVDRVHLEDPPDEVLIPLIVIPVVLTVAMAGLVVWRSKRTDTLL
Assay: SPA displacement of 125I-rat amylin, hAmylin 3(a) receptor membranes
Procedure, shortened: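 SPA beads + BHK amylin 3(a)/CRE-luc membranes, 35 ng/μL final; buffer 50 mM Hepes pH 7.4, 1 mM CaCl2, 5 mM MgCl₂, 0.1% OA, 0.02% Tween20. 120 min, 25° C, shaken; scintillation count. IC₅₀ by one-site binding competition fit, taken as receptor affinity.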

B1: N^ε1-[(4S)-4-carboxy-4-[[(4S)-4-carboxy-4-(19-carboxynonadecanoylamino)butanoyl]amino]butanoyl]-[Glu14,Arg17,Pro21,Pro27,His34]-h-amylin (peptide)
peptide: K([γGlu-γGlu-C20 diacid])CNTATCATQRLAEFLRHSSPNFGAIPSSTNVGHNTY-NH2
modifications: disulfide 2-7; N-terminus assumed
SMILES: CC[C@H](C)[C@H](NC(=O)[C@H](C)NC(=O)CNC(=O)[C@H](Cc1ccccc1)NC(=O)[C@H](CC(N)=O)NC(=O)[C@@H]1CCCN1C(=O)[C@H](CO)NC(=O)[C@H](CO)NC(=O)[C@H](Cc1c[nH]cn1)NC(=O)[C@H](CCCNC(=N)N)NC(=O)[C@H](CC(C)C)NC(=O)[C@H](Cc1ccccc1)NC(=O)[C@H](CCC(=O)O)NC(=O)[C@H](C)NC(=O)[C@H](CC(C)C)NC(=O)[C@H](CCCNC(=N)N)NC(=O)[C@H](CCC(N)=O)NC(=O)[C@@H](NC(=O)[C@H](C)NC(=O)[C@@H]1CSSC[C@H](NC(=O)[C@@H](N)CCCCNC(=O)CC[C@H](NC(=O)CC[C@H](NC(=O)CCCCCCCCCCCCCCCCCCC(=O)O)C(=O)O)C(=O)O)C(=O)N[C@@H](CC(N)=O)C(=O)N[C@@H]([C@@H](C)O)C(=O)N[C@@H](C)C(=O)N[C@@H]([C@@H](C)O)C(=O)N1)[C@@H](C)O)C(=O)N1CCC[C@H]1C(=O)N[C@@H](CO)C(=O)N[C@@H](CO)C(=O)N[C@H](C(=O)N[C@@H](CC(N)=O)C(=O)N[C@H](C(=O)NCC(=O)N[C@@H](Cc1c[nH]cn1)C(=O)N[C@@H](CC(N)=O)C(=O)N[C@H](C(=O)N[C@@H](Cc1ccc(O)cc1)C(N)=O)[C@@H](C)O)C(C)C)[C@@H](C)O
notes: also called 87; compound 87
Question: Which IC50 does the source give for B1 here?
Answer: 0.633 nM

B2: N^ε1-[(4S)-4-carboxy-4-[[(4S)-4-carboxy-4-(19-carboxynonadecanoylamino)butanoyl]amino]butanoyl]-[Glu14,Arg17,Pro21,Pro27,Pro37]-h-amylin (peptide)
peptide: K([γGlu-γGlu-C20 diacid])CNTATCATQRLAEFLRHSSPNFGAIPSSTNVGSNTP-NH2
modifications: disulfide 2-7; N-terminus assumed
SMILES: CC[C@H](C)[C@H](NC(=O)[C@H](C)NC(=O)CNC(=O)[C@H](Cc1ccccc1)NC(=O)[C@H](CC(N)=O)NC(=O)[C@@H]1CCCN1C(=O)[C@H](CO)NC(=O)[C@H](CO)NC(=O)[C@H](Cc1c[nH]cn1)NC(=O)[C@H](CCCNC(=N)N)NC(=O)[C@H](CC(C)C)NC(=O)[C@H](Cc1ccccc1)NC(=O)[C@H](CCC(=O)O)NC(=O)[C@H](C)NC(=O)[C@H](CC(C)C)NC(=O)[C@H](CCCNC(=N)N)NC(=O)[C@H](CCC(N)=O)NC(=O)[C@@H](NC(=O)[C@H](C)NC(=O)[C@@H]1CSSC[C@H](NC(=O)[C@@H](N)CCCCNC(=O)CC[C@H](NC(=O)CC[C@H](NC(=O)CCCCCCCCCCCCCCCCCCC(=O)O)C(=O)O)C(=O)O)C(=O)N[C@@H](CC(N)=O)C(=O)N[C@@H]([C@@H](C)O)C(=O)N[C@@H](C)C(=O)N[C@@H]([C@@H](C)O)C(=O)N1)[C@@H](C)O)C(=O)N1CCC[C@H]1C(=O)N[C@@H](CO)C(=O)N[C@@H](CO)C(=O)N[C@H](C(=O)N[C@@H](CC(N)=O)C(=O)N[C@H](C(=O)NCC(=O)N[C@@H](CO)C(=O)N[C@@H](CC(N)=O)C(=O)N[C@H](C(=O)N1CCC[C@H]1C(N)=O)[C@@H](C)O)C(C)C)[C@@H](C)O
notes: also called 13; compound 13
Question: For B2, which IC50 is on record?
Answer: 0.264 nM
